Numbered stars: 1 amine (or outer) side, 2 acyl side, 3 side chain; on linkers, the order of the positions; unused ones are H or OH. Bridge positions count the residues as written; N and C are the ends. Square brackets hold non-standard residues; d marks the D form. Ends that are not written are not given here. X17 = 2‑((1S,2S)-1-(Amino)-2-methylbutyl)‑1,3‑oxazole‑4‑carboxylic acid, CC[C@H](C)[C@H](N[*:1])c1nc(C(=O)[*:2])co1; Pro(4-spirocPr) = O=C(O)[C@@H]1CC2(CC2)CN1; Oic = O=C(O)[C@@H]1C[C@@H]2CCCC[C@@H]2N1; NMeI = CC[C@H](C)[C@H](NC)C(=O)O; tBuAla = CC(C)(C)C[C@H](N)C(=O)O; Pen = CC(C)(S)[C@H](N)C(=O)O; NMeC = CN[C@@H](CS)C(=O)O; Orn = NCCC[C@H](N)C(=O)O
T1: recombinant rat MASP1 active protease (amino acids 302-704, C-terminal His Tag) (rat, UniProt Q8CHN8 302-704)
T1 sequence: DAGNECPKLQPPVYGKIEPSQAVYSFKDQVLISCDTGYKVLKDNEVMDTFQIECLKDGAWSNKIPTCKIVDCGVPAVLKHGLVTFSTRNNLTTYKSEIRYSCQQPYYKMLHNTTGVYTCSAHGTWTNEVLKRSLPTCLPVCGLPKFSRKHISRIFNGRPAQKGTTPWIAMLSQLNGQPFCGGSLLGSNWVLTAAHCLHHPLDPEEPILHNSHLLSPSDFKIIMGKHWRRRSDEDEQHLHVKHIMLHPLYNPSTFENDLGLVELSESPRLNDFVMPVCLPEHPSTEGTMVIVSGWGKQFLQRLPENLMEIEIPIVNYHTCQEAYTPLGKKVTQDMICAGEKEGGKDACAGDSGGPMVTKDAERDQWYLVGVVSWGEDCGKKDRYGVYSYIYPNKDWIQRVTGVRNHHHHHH


molecular target: T1, recombinant rat MASP1 active protease …; assay: cell-based or functional assay

Row | rat MASP1 IC50 [µM] | Binder
1 | 0.14 | AICSRS[tBuAla]PPICI-NH2 (disulfide 3-11; N-terminus assumed; SMILES CC[C@H](C)[C@H](NC(=O)[C@@H]1CSSC[C@H](NC(=O)[C@@H](NC(=O)[C@H](C)N)[C@@H](C)CC)C(=O)N[C@@H](CO)C(=O)N[C@@H](CCCNC(=N)N)C(=O)N[C@@H](CO)C(=O)N[C@@H](CC(C)(C)C)C(=O)N2CCC[C@H]2C(=O)N2CCC[C@H]2C(=O)N[C@@H]([C@@H](C)CC)C(=O)N1)C(N)=O) [Example 37: AIC+SRS-((tBu)A)-PPIC+I-NH2]
2 | 0.25 | Ac-G[NMeI]CSRSLPPICIPD-OH (disulfide 3-11; SMILES CC[C@H](C)[C@@H]1NC(=O)[C@@H]2CCCN2C(=O)[C@@H]2CCCN2C(=O)[C@H](CC(C)C)NC(=O)[C@H](CO)NC(=O)[C@H](CCCNC(=N)N)NC(=O)[C@H](CO)NC(=O)[C@@H](NC(=O)[C@H]([C@@H](C)CC)N(C)C(=O)CNC(C)=O)CSSC[C@@H](C(=O)N[C@H](C(=O)N2CCC[C@H]2C(=O)N[C@@H](CC(=O)O)C(=O)O)[C@@H](C)CC)NC1=O) [Example 59: Ac-G-((N-Me)I)-C+SRSLPPIC+IPD-OH]
3 | 0.012 | RICSRS[tBuAla]PPI[NMeC]I-NH2 (disulfide 3-11; N-terminus assumed; SMILES CC[C@H](C)[C@H](NC(=O)[C@@H]1CSSC[C@H](NC(=O)[C@@H](NC(=O)[C@@H](N)CCCNC(=N)N)[C@@H](C)CC)C(=O)N[C@@H](CO)C(=O)N[C@@H](CCCNC(=N)N)C(=O)N[C@@H](CO)C(=O)N[C@@H](CC(C)(C)C)C(=O)N2CCC[C@H]2C(=O)N2CCC[C@H]2C(=O)N[C@@H]([C@@H](C)CC)C(=O)N1C)C(N)=O) [Example 38: RIC+SRS-((tBu)A)-PPI-((N-Me)C)+I-NH2]
4 | 0.0515 | AICSRS[tBuAla]PPI[NMeC]IPD-NH2 (disulfide 3-11; N-terminus assumed; SMILES CC[C@H](C)[C@H](NC(=O)[C@H](C)N)C(=O)N[C@H]1CSSC[C@@H](C(=O)N[C@H](C(=O)N2CCC[C@H]2C(=O)N[C@@H](CC(=O)O)C(N)=O)[C@@H](C)CC)N(C)C(=O)[C@H]([C@@H](C)CC)NC(=O)[C@@H]2CCCN2C(=O)[C@@H]2CCCN2C(=O)[C@H](CC(C)(C)C)NC(=O)[C@H](CO)NC(=O)[C@H](CCCNC(=N)N)NC(=O)[C@H](CO)NC1=O) [Example 48: AIC+SRS-((tBu)A)-PPI-((N-Me)C)+IPD-NH2]
5 | 0.023 | RICSRS[tBuAla]PPI[NMeC]IPD-NH2 (disulfide 3-11; N-terminus assumed; SMILES CC[C@H](C)[C@H](NC(=O)[C@@H](N)CCCNC(=N)N)C(=O)N[C@H]1CSSC[C@@H](C(=O)N[C@H](C(=O)N2CCC[C@H]2C(=O)N[C@@H](CC(=O)O)C(N)=O)[C@@H](C)CC)N(C)C(=O)[C@H]([C@@H](C)CC)NC(=O)[C@@H]2CCCN2C(=O)[C@@H]2CCCN2C(=O)[C@H](CC(C)(C)C)NC(=O)[C@H](CO)NC(=O)[C@H](CCCNC(=N)N)NC(=O)[C@H](CO)NC1=O) [Example 19: RIC+SRS-((tBu)A)-PPI-((N-Me)C)+IPD-NH2]
6 | 0.026 | [Orn]ICSRS[tBuAla]PPI[Pen]IPD-OH (disulfide 3-11; N-terminus assumed; SMILES CC[C@H](C)[C@H](NC(=O)[C@@H](N)CCCN)C(=O)N[C@H]1CSSC(C)(C)[C@@H](C(=O)N[C@H](C(=O)N2CCC[C@H]2C(=O)N[C@@H](CC(=O)O)C(=O)O)[C@@H](C)CC)NC(=O)[C@H]([C@@H](C)CC)NC(=O)[C@@H]2CCCN2C(=O)[C@@H]2CCCN2C(=O)[C@H](CC(C)(C)C)NC(=O)[C@H](CO)NC(=O)[C@H](CCCNC(=N)N)NC(=O)[C@H](CO)NC1=O) [Example 18: (Orn)-IC+SRS-((tBu)A)-PPI-(Pen)+IPD-OH]
7 | 0.046 | KICSRS[tBuAla]PPI[NMeC]IPD-NH2 (disulfide 3-11; N-terminus assumed; SMILES CC[C@H](C)[C@H](NC(=O)[C@@H](N)CCCCN)C(=O)N[C@H]1CSSC[C@@H](C(=O)N[C@H](C(=O)N2CCC[C@H]2C(=O)N[C@@H](CC(=O)O)C(N)=O)[C@@H](C)CC)N(C)C(=O)[C@H]([C@@H](C)CC)NC(=O)[C@@H]2CCCN2C(=O)[C@@H]2CCCN2C(=O)[C@H](CC(C)(C)C)NC(=O)[C@H](CO)NC(=O)[C@H](CCCNC(=N)N)NC(=O)[C@H](CO)NC1=O) [Example 35: KIC+SRS-((tBu)A)-PPI-((N-Me)C)+IPD-NH2]
8 | 0.028 | AICSRS[tBuAla]PPI[NMeC]IPD-NH2 (disulfide 3-11; also: HCl salt) [Example 30: AIC+SRS-((tBu)A)-PPI-((N-Me)C)+IPD-NH2 (HCl salt)]
9 | 0.023 | AICSRS[tBuAla]P[Oic]I[Pen]IPD-OH (disulfide 3-11; N-terminus assumed; SMILES CC[C@H](C)[C@H](NC(=O)[C@H](C)N)C(=O)N[C@H]1CSSC(C)(C)[C@@H](C(=O)N[C@H](C(=O)N2CCC[C@H]2C(=O)N[C@@H](CC(=O)O)C(=O)O)[C@@H](C)CC)NC(=O)[C@H]([C@@H](C)CC)NC(=O)[C@@H]2C[C@@H]3CCCC[C@@H]3N2C(=O)[C@@H]2CCCN2C(=O)[C@H](CC(C)(C)C)NC(=O)[C@H](CO)NC(=O)[C@H](CCCNC(=N)N)NC(=O)[C@H](CO)NC1=O) [Example 14: AIC+SRS-((tBu)A)-P-(Oic)-I-(Pen)+IPD-OH]
10 | 0.06 | [Orn]ICSRS[tBuAla]PPI[Pen]IPD-NH2 (disulfide 3-11; N-terminus assumed; SMILES CC[C@H](C)[C@H](NC(=O)[C@@H](N)CCCN)C(=O)N[C@H]1CSSC(C)(C)[C@@H](C(=O)N[C@H](C(=O)N2CCC[C@H]2C(=O)N[C@@H](CC(=O)O)C(N)=O)[C@@H](C)CC)NC(=O)[C@H]([C@@H](C)CC)NC(=O)[C@@H]2CCCN2C(=O)[C@@H]2CCCN2C(=O)[C@H](CC(C)(C)C)NC(=O)[C@H](CO)NC(=O)[C@H](CCCNC(=N)N)NC(=O)[C@H](CO)NC1=O) [Example 49: (Orn)-IC+SRS-((tBu)A)-PPI-(Pen)+IPD-NH2]

The next lines start with the binder.

Row | Binder | rat MASP1 IC50 [µM]
11 | AICSRS[tBuAla]P[Pro(4-spirocPr)]I[Pen]IPD-OH (disulfide 3-11; N-terminus assumed; SMILES CC[C@H](C)[C@H](NC(=O)[C@H](C)N)C(=O)N[C@H]1CSSC(C)(C)[C@@H](C(=O)N[C@H](C(=O)N2CCC[C@H]2C(=O)N[C@@H](CC(=O)O)C(=O)O)[C@@H](C)CC)NC(=O)[C@H]([C@@H](C)CC)NC(=O)[C@@H]2CC3(CC3)CN2C(=O)[C@@H]2CCCN2C(=O)[C@H](CC(C)(C)C)NC(=O)[C@H](CO)NC(=O)[C@H](CCCNC(=N)N)NC(=O)[C@H](CO)NC1=O) [Example 31: AIC+SRS-((tBu)A)-P-((6S)-5-Azaspiro[2.4]heptane-6-carboxylic acid)-I-(Pen)+IPD-OH] | 0.022
12 | AICSRSLP[Pro(4-spirocPr)]I[Pen]IPD-OH (disulfide 3-11; N-terminus assumed; SMILES CC[C@H](C)[C@H](NC(=O)[C@H](C)N)C(=O)N[C@H]1CSSC(C)(C)[C@@H](C(=O)N[C@H](C(=O)N2CCC[C@H]2C(=O)N[C@@H](CC(=O)O)C(=O)O)[C@@H](C)CC)NC(=O)[C@H]([C@@H](C)CC)NC(=O)[C@@H]2CC3(CC3)CN2C(=O)[C@@H]2CCCN2C(=O)[C@H](CC(C)C)NC(=O)[C@H](CO)NC(=O)[C@H](CCCNC(=N)N)NC(=O)[C@H](CO)NC1=O) [Example 36: AIC+SRSLP-((6S)-5-Azaspiro[2.4]heptane-6-carboxylic acid)-I-(Pen)+IPD-OH] | 0.024
13 | AICSRSLP[Pro(4-spirocPr)]I[Pen]IPD-NH2 (disulfide 3-11; N-terminus assumed; SMILES CC[C@H](C)[C@H](NC(=O)[C@H](C)N)C(=O)N[C@H]1CSSC(C)(C)[C@@H](C(=O)N[C@H](C(=O)N2CCC[C@H]2C(=O)N[C@@H](CC(=O)O)C(N)=O)[C@@H](C)CC)NC(=O)[C@H]([C@@H](C)CC)NC(=O)[C@@H]2CC3(CC3)CN2C(=O)[C@@H]2CCCN2C(=O)[C@H](CC(C)C)NC(=O)[C@H](CO)NC(=O)[C@H](CCCNC(=N)N)NC(=O)[C@H](CO)NC1=O) [Example 17: AIC+SRSLP-((6S)-5-Azaspiro[2.4]heptane-6-carboxylic acid)-I-(Pen)+IPD-NH2] | 0.031
14 | AICSRS[tBuAla]PPI[Pen]IPD-OH (disulfide 3-11; N-terminus assumed; SMILES CC[C@H](C)[C@H](NC(=O)[C@H](C)N)C(=O)N[C@H]1CSSC(C)(C)[C@@H](C(=O)N[C@H](C(=O)N2CCC[C@H]2C(=O)N[C@@H](CC(=O)O)C(=O)O)[C@@H](C)CC)NC(=O)[C@H]([C@@H](C)CC)NC(=O)[C@@H]2CCCN2C(=O)[C@@H]2CCCN2C(=O)[C@H](CC(C)(C)C)NC(=O)[C@H](CO)NC(=O)[C@H](CCCNC(=N)N)NC(=O)[C@H](CO)NC1=O) [Example 12: AIC+SRS-((tBu)A)-PPI-(Pen)+IPD-OH] | 0.013
15 | AICSRS[tBuAla]P[Pro(4-spirocPr)]I[Pen]IPD-NH2 (disulfide 3-11; N-terminus assumed; SMILES CC[C@H](C)[C@H](NC(=O)[C@H](C)N)C(=O)N[C@H]1CSSC(C)(C)[C@@H](C(=O)N[C@H](C(=O)N2CCC[C@H]2C(=O)N[C@@H](CC(=O)O)C(N)=O)[C@@H](C)CC)NC(=O)[C@H]([C@@H](C)CC)NC(=O)[C@@H]2CC3(CC3)CN2C(=O)[C@@H]2CCCN2C(=O)[C@H](CC(C)(C)C)NC(=O)[C@H](CO)NC(=O)[C@H](CCCNC(=N)N)NC(=O)[C@H](CO)NC1=O) [Example 45: AIC+SRS-((tBu)A)-P-((6S)-5-Azaspiro[2.4]heptane-6-carboxylic acid)-I-(Pen)+IPD-NH2] | 0.04
16 | AICSRS[tBuAla]PPI[NMeC][X17]D-NH2 (disulfide 3-11; N-terminus assumed; SMILES CC[C@H](C)[C@H](NC(=O)[C@H](C)N)C(=O)N[C@H]1CSSC[C@@H](C(=O)N[C@H](c2nc(C(=O)N[C@@H](CC(=O)O)C(N)=O)co2)[C@@H](C)CC)N(C)C(=O)[C@H]([C@@H](C)CC)NC(=O)[C@@H]2CCCN2C(=O)[C@@H]2CCCN2C(=O)[C@H](CC(C)(C)C)NC(=O)[C@H](CO)NC(=O)[C@H](CCCNC(=N)N)NC(=O)[C@H](CO)NC1=O) | 0.013

Source: patent publication US20210246166A1 (Bayer, published 2021)
